Assay results as given in the supplement of paper PMC5998384.

Tests used:
HeLa Kyoto [1] = experiment: melting temperature (median over replicates), in situ; higher = more thermally stable
HeLa Kyoto [2] = experiment: solubility change mitosis vs G1/S (difference of NP-40 vs SDS log2 ratios) (log2 ratio difference); higher = more soluble in mitosis
HeLa Kyoto [3] = experiment: solubility in G1/S (NP-40 vs SDS abundance) (log2 ratio); higher = more soluble; details: cell cycle stage: G1/S
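Throughout, for melting temperature (median over replicates), in situ: HeLa Kyoto cells synchronized by double thymidine or nocodazole block, proteins quantified by TMT10plex mass spectrometry, three independent biological replicates.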
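Throughout, for solubility change mitosis vs G1/S (difference of NP-40 vs SDS log2 ratios): synchronized HeLa Kyoto cells (double thymidine block for G1/S, nocodazole release for mitosis), protein amounts in NP-40 versus SDS lysates quantified by mass spectrometry, three biological replicates.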
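Throughout, for solubility in G1/S (NP-40 vs SDS abundance): HeLa Kyoto cells arrested at G1/S by double thymidine block, proteins quantified by TMT10plex mass spectrometry in mild NP-40 versus SDS extracts, three biological replicates.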

Sequence	melting temperature (HeLa Kyoto [1]; cell cycle stage: G1/S) [°C]	melting temperature (HeLa Kyoto [1]; cell cycle stage: mitosis) [°C]	solubility change mitosis (log2) (HeLa Kyoto [2])	solubility in G1/S (log2) (HeLa Kyoto [3])
MATSTGRWLLLRLALFGFLWEASGGLDSGASRDDDLLLPYPRARARLPRDCTRVRAGNREHESWPPPPATPGAGGLAVRTFVSHFRDRAVAGHLTRAVEPLRTFSVLEPGGPGGCAARRRATVEETARAADCRVAQNGGFFRMNSGECLGNVVSDERRVSSSGGLQNAQFGIRRDGTLVTGYLSEEEVLDTENPFVQLLSGVVWLIRNGSIYINESQATECDETQETGSFSKFVNVISARTAIGHDRKGQLVLFHADGQTEQRGINLWEMAEFLLKQDVVNAINLDGGGSATFVLNGTLASYPSDHCQDNMWRCPRQVSTVVCVHEPRCQPPDCHGHGTCVDGHCQCTGHFWRGPGCDELDCGPSNCSQHGLCTETGCRCDAGWTGSNCSEECPLGWHGPGCQRPCKCEHHCPCDPKTGNCSVSRVKQCLQPPEATLRAGELSFFTRTAWLALTLALAFLLLISTAANLSLLLSRAERNRRLHGDYAYHPLQEMNGEPLAAEKEQPGGAHNPFKD [NAGPA]	54.5	55.4	-0.232	0.327
MAVCGLGSRLGLGSRLGLRGCFGAARLLYPRFQSRGPQGVEDGDRPQPSSKTPRIPKIYTKTGDKGFSSTFTGERRPKDDQVFEAVGTTDELSSAIGFALELVTEKGHTFAEELQKIQCTLQDVGSALATPCSSAREAHLKYTTFKAGPILELEQWIDKYTSQLPPLTAFILPSGGKISSALHFCRAVCRRAERRVVPLVQMGETDANVAKFLNRLSDYLFTLARYAAMKEGNQEKIYMKNDPSAESEGL [MMAB]	51.8	55.8	0.126	0.574
MAVLKLTDQPPLVQAIFSGDPEEIRMLIHKTEDVNTLDSEKRTPLHVAAFLGDAEIIELLILSGARVNAKDNMWLTPLHRAVASRSEEAVQVLIKHSADVNARDKNWQTPLHVAAANKAVKCAEVIIPLLSSVNVSDRGGRTALHHAALNGHVEMVNLLLAKGANINAFDKKDRRALHWAAYMGHLDVVALLINHGAEVTCKDKKGYTPLHAAASNGQINVVKHLLNLGVEIDEINVYGNTALHIACYNGQDAVVNELIDYGANVNQPNNNGFTPLHFAAASTHGALCLELLVNNGADVNIQSKDGKSPLHMTAVHGRFTRSQTLIQNGGEIDCVDKDGNTPLHVAARYGHELLINTLITSGADTAKCGIHSMFPLHLAALNAHSDCCRKLLSSGFEIDTPDKFGRTCLHAAAAGGNVECIKLLQSSGADFHKKDKCGRTPLHYAAANCHFHCIETLVTTGANVNETDDWGRTALHYAAASDMDRNKTILGNAHDNSEELERARELKEKEATLCLEFLLQNDANPSIRDKEGYNSIHYAAAYGHRQCLELLLERTNSGFEESDSGATKSPLHLAAYNGHHQALEVLLQSLVDLDIRDEKGRTALDLAAFKGHTECVEALINQGASIFVKDNVTKRTPLHASVINGHTLCLRLLLEIADNPEAVDVKDAKGQTPLMLAVAYGHIDAVSLLLEKEANVDTVDILGCTALHRGIMTGHEECVQMLLEQEVSILCKDSRGRTPLHYAAARGHATWLSELLQMALSEEDCCFKDNQGYTPLHWACYNGNENCIEVLLEQKCFRKFIGNPFTPLHCAIINDHGNCASLLLGAIDSSIVSCRDDKGRTPLHAAAFADHVECLQLLLRHSAPVNAVDNSGKTALMMAAENGQAGAVDILVNSAQADLTVKDKDLNTPLHLACSKGHEKCALLILDKIQDESLINEKNNALQTPLHVAARNGLKVVVEELLAKGACVLAVDENASRSNGPRSTPGTAVQKEE [ANKRD44]	51.7	52.2	-0.0872	-0.235
MDALEGESFALSFSSASDAEFDAVVGYLEDIIMDDEFQLLQRNFMDKYYLEFEDTEENKLIYTPIFNEYISLVEKYIEEQLLQRIPEFNMAAFTTTLQHHKDEVAGDIFDMLLTFTDFLAFKEMFLDYRAEKEGRGLDLSSGLVVTSLCKSSSLPASQNNLRH [ARL2BP]	50.9	53	0.0405	-0.148
MDDSETGFNLKVVLVSFKQCLDEKEEVLLDPYIASWKGLVRFLNSLGTIFSFISKDVVSKLRIMERLRGGPQSEHYRSLQAMVAHELSNRLVDLERRSHHPESGCRTVLRLHRALHWLQLFLEGLRTSPEDARTSALCADSYNASLAAYHPWVVRRAVTVAFCTLPTREVFLEAMNVGPPEQAVQMLGEALPFIQRVYNVSQKLYAEHSLLDLP [CPTP]	49.1	48.4	-0.256	-0.0351
MDFENLFSKPPNPALGKTATDSDERIDDEIDTEVEETQEEKIKLECEQIPKKFRHSAISPKSSLHRKSRSKDYDVYSDNDICSQESEDNFAKELQQYIQAREMANAAQPEESTKKEGVKDTPQAAKQKNKNLKAGHKNGKQKKMKRKWPGPGNKGSNALLRNSGSQEEDGKPKEKQQHLSQAFINQHTVERKGKQICKYFLERKCIKGDQCKFDHDAEIEKKKEMCKFYVQGYCTRGENCLYLHNEYPCKFYHTGTKCYQGEYCKFSHAPLTPETQELLAKVLDTEKKSCK [ZC3H8]	55.1	55.1	0.444	-0.126
MDLPVGPGAAGPSNVPAFLTKLWTLVSDPDTDALICWSPSGNSFHVFDQGQFAKEVLPKYFKHNNMASFVRQLNMYGFRKVVHIEQGGLVKPERDDTEFQHPCFLRGQEQLLENIKRKVTSVSTLKSEDIKIRQDSVTKLLTDVQLMKGKQECMDSKLLAMKHENEALWREVASLRQKHAQQQKVVNKLIQFLISLVQSNRILGVKRKIPLMLNDSGSAHSMPKYSRQFSLEHVHGSGPYSAPSPAYSSSSLYAPDAVASSGPIISDITELAPASPMASPGGSIDERPLSSSPLVRVKEEPPSPPQSPRVEEASPGRPSSVDTLLSPTALIDSILRESEPAPASVTALTDARGHTDTEGRPPSPPPTSTPEKCLSVACLDKNELSDHLDAMDSNLDNLQTMLSSHGFSVDTSALLDLFSPSVTVPDMSLPDLDSSLASIQELLSPQEPPRPPEAENSSPDSGKQLVHYTAQPLFLLDPGSVDTGSNDLPVLFELGEGSYFSEGDGFAEDPTISLLTGSEPPKAKDPTVS [HSF1]	47.9	49.8	-0.148	0.523
MDSELKEEIPVHEEFILCGGAETQVLKCGPWTDLFHDQSVKRPKLLIFIIPGNPGFSAFYVPFAKALYSLTNRRFPVWTISHAGHALAPKDKKILTTSEDSNAQEIKDIYGLNGQIEHKLAFLRTHVPKDMKLVLIGHSIGSYFTLQMLKRVPELPVIRAFLLFPTIERMSESPNGRIATPLLCWFRYVLYVTGYLLLKPCPETIKSLLIRRGLQVMNLENEFSPLNILEPFCLANAAYLGGQEMMEVVKRDDETIKEHLCKLTFYYGTIDPWCPKEYYEDIKKDFPEGDIRLCEKNIPHAFITHFNQEMADMIADSLKDDLSKM [LDAH]	52.3	–	-0.331	0.0802
MDTEPNPGTSSVSTTTSSTTTTTITTSSSRMQQPQISVYSGSDRHAVQVIQQALHRPPSSAAQYLQQMYAAQQQHLMLHTAALQQQHLSSSQLQSLAAVQASLSSGRPSTSPTGSVTQQSSMSQTSINLSTSPTPAQLISRSQASSSTSGSITQQTMLLGSTSPTLTASQAQMYLRAQMLIFTPATTVAAVQSDIPVVSSSSSSSCQSAATQVQNLTLRSQKLGVLSSSQNGPPKSTSQTQSLTICHNKTTVTSSKISQRDPSPESNKKGESPSLESRSTAVTRTSSIHQLIAPASYSPIQPHSLIKHQQIPLHSPPSKVSHHQLILQQQQQQIQPITLQNSTQDPPPSQHCIPLQNHGLPPAPSNAQSQHCSPIQSHPSPLTVSPNQSQSAQQSVVVSPPPPHSPSQSPTIIIHPQALIQPHPLVSSALQPGPNLQQSTANQVQATAQLNLPSHLPLPASPVVHIGPVQQSALVSPGQQIVSPSHQQYSSLQSSPIPIASPPQMSTSPPAQIPPLPLQSMQSLQVQPEILSQGQVLVQNALVSEEELPAAEALVQLPFQTLPPPQTVAVNLQVQPPAPVDPPVVYQVEDVCEEEMPEESDECVRMDRTPPPPTLSPAAITVGRGEDLTSEHPLLEQVELPAVASVSASVIKSPSDPSHVSVPPPPLLLPAATTRSNSTSMHSSIPSIENKPPQAIVKPQILTHVIEGFVIQEGLEPFPVSRSSLLIEQPVKKRPLLDNQVINSVCVQPELQNNTKHADNSSDTEMEDMIAEETLEEMDSELLKCEFCGKMGYANEFLRSKRFCTMSCAKRYNVSCSKKFALSRWNRKPDNQSLGHRGRRPSGPDGAAREHILRQLPITYPSAEEDLASHEDSVPSAMTTRLRRQSERERERELRDVRIRKMPENSDLLPVAQTEPSIWTVDDVWAFIHSLPGCQDIADEFRAQEIDGQALLLLKEDHLMSAMNIKLGPALKICARINSLKES [PHC3]	46.5	50.2	0.439	-0.44
MEEEGVKEAGEKPRGAQMVDKAGWIKKSSGGLLGFWKDRYLLLCQAQLLVYENEDDQKCVETVELGSYEKCQDLRALLKRKHRFILLRSPGNKVSDIKFQAPTGEEKESWIKALNEGINRGKNKAFDEVKVDKSCALEHVTRDRVRGGQRRRPPTRVHLKEVASAASDGLLRLDLDVPDSGPPVFAPSNHVSEAQPRETPRPLMPPTKPFLAPETTSPGDRVETPVGERAPTPVSASSEVSPESQEDSETPAEEDSGSEQPPNSVLPDKLKVSWENPSPQEAPAAESAEPSQAPCSETSEAAPREGGKPPTPPPKILSEKLKASMGEMQASGPPAPGTVQVSVNGMDDSPEPAKPSQAEGTPGTPPKDATTSTALPPWDLPPQFHPRCSSLGDLLGEGPRHPLQPRERLYRAQLEVKVASEQTEKLLNKVLGSEPAPVSAETLLSQAVEQLRQATQVLQEMRDLGELSQEAPGLREKRKELVTLYRRSAP [PLEKHO2]	53.2	51.9	0.0528	0.188
MEELTIWEQHTATLSKDPRRGFGIAISGGRDRPGGSMVVSDVVPGGPAEGRLQTGDHIVMVNGVSMENATSAFAIQILKTCTKMANITVKRPRRIHLPATKASPSSPGRQDSDEDDGPQRVEEVDQGRGYDGDSSSGSGRSWDERSRRPRPGRRGRAGSHGRRSPGGGSEANGLALVSGFKRLPRQDVQMKPVKSVLVKRRDSEEFGVKLGSQIFIKHITDSGLAARHRGLQEGDLILQINGVSSQNLSLNDTRRLIEKSEGKLSLLVLRDRGQFLVNIPPAVSDSDSSPLEDISDLASELSQAPPSHIPPPPRHAQRSPEASQTDSPVESPRLRRESSVDSRTISEPDEQRSELPRESSYDIYRVPSSQSMEDRGYSPDTRVVRFLKGKSIGLRLAGGNDVGIFVSGVQAGSPADGQGIQEGDQILQVNDVPFQNLTREEAVQFLLGLPPGEEMELVTQRKQDIFWKMVQSRVGDSFYIRTHFELEPSPPSGLGFTRGDVFHVLDTLHPGPGQSHARGGHWLAVRMGRDLREQERGIIPNQSRAEQLASLEAAQRAVGVGPGSSAGSNARAEFWRLRGLRRGAKKTTQRSREDLSALTRQGRYPPYERVVLREASFKRPVVILGPVADIAMQKLTAEMPDQFEIAETVSRTDSPSKIIKLDTVRVIAEKDKHALLDVTPSAIERLNYVQYYPIVVFFIPESRPALKALRQWLAPASRRSTRRLYAQAQKLRKHSSHLFTATIPLNGTSDTWYQELKAIIREQQTRPIWTAEDQLDGSLEDNLDLPHHGLADSSADLSCDSRVNSDYETDGEGGAYTDGEGYTDGEGGPYTDVDDEPPAPALARSSEPVQADESQSPRDRGRISAHQGAQVDSRHPQGQWRQDSMRTYEREALKKKFMRVHDAESSDEDGYDWGPATDL [TJP3]	50.3	50.8	0.0692	-0.105
MEGGGGIPLETLKEESQSRHVLPASFEVNSLQKSNWGFLLTGLVGGTLVAVYAVATPFVTPALRKVCLPFVPATTKQIENVVKMLRCRRGSLVDIGSGDGRIVIAAAKKGFTAVGYELNPWLVWYSRYRAWREGVHGSAKFYISDLWKVTFSQYSNVVIFGVPQMMLQLEKKLERELEDDARVIACRFPFPHWTPDHVTGEGIDTVWAYDASTFRGREKRPCTSMHFQLPIQA [FAM173B]	54.7	–	-0.0503	-0.208
